Where no end group is shown, it is not given here.
Tests used:
[1] = molecular target: T1, recombinant protein of the extracellular region of hTROP-2 (human); assay: ELISA of free antibody after equilibration with antigen in solution
T1 sequence: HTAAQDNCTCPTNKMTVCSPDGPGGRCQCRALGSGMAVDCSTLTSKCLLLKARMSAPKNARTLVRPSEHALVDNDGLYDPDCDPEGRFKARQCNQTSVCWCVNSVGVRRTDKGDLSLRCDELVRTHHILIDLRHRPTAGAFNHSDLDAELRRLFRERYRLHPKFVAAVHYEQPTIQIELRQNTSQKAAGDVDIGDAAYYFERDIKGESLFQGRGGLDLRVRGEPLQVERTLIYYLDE

Table 9 peptide No. 7 = molecular target: T2, Table 9 peptide No. 7 (human, not fully specified); assay: PEPSCAN CLIPS peptide ELISA
T2 peptide: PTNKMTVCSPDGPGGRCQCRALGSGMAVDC

Table 9 peptide No. 5 = molecular target: T3, Table 9 peptide No. 5 (human, not fully specified); assay: PEPSCAN CLIPS peptide ELISA
T3 peptide: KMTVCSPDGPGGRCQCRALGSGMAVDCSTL

Table 9 peptide No. 27 = molecular target: T4, Table 9 peptide No. 27 (human, not fully specified); assay: PEPSCAN CLIPS peptide ELISA
T4 peptide: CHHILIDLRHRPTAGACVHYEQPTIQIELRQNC

Table 9 peptide No. 3 = molecular target: T5, Table 9 peptide No. 3 (human, not fully specified); assay: PEPSCAN CLIPS peptide ELISA
T5 peptide: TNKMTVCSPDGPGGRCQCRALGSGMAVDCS

Table 9 peptide No. 22 = molecular target: T6, Table 9 peptide No. 22 (human, not fully specified); assay: PEPSCAN CLIPS peptide ELISA
T6 peptide: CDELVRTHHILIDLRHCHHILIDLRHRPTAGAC

Table 9 peptide No. 13 = molecular target: T7, Table 9 peptide No. 13 (human, not fully specified); assay: PEPSCAN CLIPS peptide ELISA
T7 peptide: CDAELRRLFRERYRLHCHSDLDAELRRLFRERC

Table 9 peptide No. 15 = molecular target: T8, Table 9 peptide No. 15 (human, not fully specified); assay: PEPSCAN CLIPS peptide ELISA
T8 peptide: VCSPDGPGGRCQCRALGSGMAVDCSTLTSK

Table 9 peptide No. 11 = molecular target: T9, Table 9 peptide No. 11 (human, not fully specified); assay: PEPSCAN CLIPS peptide ELISA
T9 peptide: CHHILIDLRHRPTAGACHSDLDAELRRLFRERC

Table 9 peptide No. 29 = Table 9 peptide No. 29 (human); assay: PEPSCAN CLIPS peptide ELISA
Table 9 peptide No. 16 = molecular target: T10, Table 9 peptide No. 16 (human, not fully specified); assay: PEPSCAN CLIPS peptide ELISA
T10 peptide: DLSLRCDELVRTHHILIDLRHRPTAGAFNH

Table 9 peptide No. 1 = molecular target: T11, Table 9 peptide No. 1 (human, not fully specified); assay: PEPSCAN CLIPS peptide ELISA
T11 peptide: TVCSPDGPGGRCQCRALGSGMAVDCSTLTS

Table 9 peptide No. 14 = molecular target: T12, Table 9 peptide No. 14 (human, not fully specified; cysteine pairing not given here); assay: PEPSCAN CLIPS peptide ELISA
T12 peptide: CDAELRRLFRERYRLHCPK

Table 9 peptide No. 2 = molecular target: T13, Table 9 peptide No. 2 (human, not fully specified); assay: PEPSCAN CLIPS peptide ELISA
T13 peptide: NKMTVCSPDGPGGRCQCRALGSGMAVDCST

Table 9 peptide No. 17 = molecular target: T14, Table 9 peptide No. 17 (human, not fully specified); assay: PEPSCAN CLIPS peptide ELISA
T14 peptide: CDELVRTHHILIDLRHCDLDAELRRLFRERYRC

Table 9 peptide No. 4 = molecular target: T15, Table 9 peptide No. 4 (human, not fully specified); assay: PEPSCAN CLIPS peptide ELISA
T15 peptide: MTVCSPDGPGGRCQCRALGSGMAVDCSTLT

Table 9 peptide No. 24 = molecular target: T16, Table 9 peptide No. 24 (human, not fully specified); assay: PEPSCAN CLIPS peptide ELISA
T16 peptide: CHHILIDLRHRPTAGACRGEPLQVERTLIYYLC

Table 9 peptide No. 12 = molecular target: T17, Table 9 peptide No. 12 (human, not fully specified); assay: PEPSCAN CLIPS peptide ELISA
T17 peptide: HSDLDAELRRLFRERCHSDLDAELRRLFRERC

Table 9 peptide No. 25 = molecular target: T18, Table 9 peptide No. 25 (human, not fully specified; cysteine pairing not given here); assay: PEPSCAN CLIPS peptide ELISA
T18 peptide: CSPDGPGGRCQCRAL

Table 9 peptide No. 19 = molecular target: T19, Table 9 peptide No. 19 (human, not fully specified); assay: PEPSCAN CLIPS peptide ELISA
T19 peptide: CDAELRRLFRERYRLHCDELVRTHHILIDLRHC

Table 9 peptide No. 6 = molecular target: T20, Table 9 peptide No. 6 (human, not fully specified); assay: PEPSCAN CLIPS peptide ELISA
T20 peptide: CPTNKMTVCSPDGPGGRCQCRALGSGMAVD

Table 9 peptide No. 26 = Table 9 peptide No. 26 (human); assay: PEPSCAN CLIPS peptide ELISA
Table 9 peptide No. 18 = molecular target: T21, Table 9 peptide No. 18 (human, not fully specified; cysteine pairing not given here); assay: PEPSCAN CLIPS peptide ELISA
T21 peptide: CFQGRGGLDLRVRGEPC

Table 9 peptide No. 21 = molecular target: T22, Table 9 peptide No. 21 (human, not fully specified); assay: PEPSCAN CLIPS peptide ELISA
T22 peptide: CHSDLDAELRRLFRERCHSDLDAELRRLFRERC

Table 9 peptide No. 28 = molecular target: T23, Table 9 peptide No. 28 (human, not fully specified); assay: PEPSCAN CLIPS peptide ELISA
T23 peptide: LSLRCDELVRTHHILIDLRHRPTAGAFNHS

Table 9 peptide No. 8 = molecular target: T24, Table 9 peptide No. 8 (human, not fully specified); assay: PEPSCAN CLIPS peptide ELISA
T24 peptide: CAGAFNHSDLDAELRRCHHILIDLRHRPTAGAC

Table 9 peptide No. 20 = molecular target: T25, Table 9 peptide No. 20 (human, not fully specified); assay: PEPSCAN CLIPS peptide ELISA
T25 peptide: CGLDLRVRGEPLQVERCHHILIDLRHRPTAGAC

Table 9 peptide No. 10 = molecular target: T26, Table 9 peptide No. 10 (human, not fully specified); assay: PEPSCAN CLIPS peptide ELISA
T26 peptide: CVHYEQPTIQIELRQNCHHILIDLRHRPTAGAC

Table 9 peptide No. 23 = molecular target: T27, Table 9 peptide No. 23 (human, not fully specified); assay: PEPSCAN CLIPS peptide ELISA
T27 peptide: T19 peptide

Table 9 peptide No. 9 = molecular target: T28, Table 9 peptide No. 9 (human, not fully specified; cysteine pairing not given here); assay: PEPSCAN CLIPS peptide ELISA
T28 peptide: CTHHILIDLRHRPTAGC

human TROP-2 (hTROP-2) [2] = molecular target: T29, human TROP-2 (hTROP-2) (human); assay: FACS on PK-59 cells
T29 chain: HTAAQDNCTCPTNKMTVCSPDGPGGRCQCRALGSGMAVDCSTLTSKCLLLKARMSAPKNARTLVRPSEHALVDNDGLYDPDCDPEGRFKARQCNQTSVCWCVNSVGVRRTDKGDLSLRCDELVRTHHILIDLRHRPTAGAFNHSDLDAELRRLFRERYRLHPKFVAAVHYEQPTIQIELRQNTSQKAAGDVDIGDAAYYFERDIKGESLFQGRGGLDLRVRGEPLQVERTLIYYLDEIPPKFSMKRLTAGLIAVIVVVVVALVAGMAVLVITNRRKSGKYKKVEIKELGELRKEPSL

human TROP-2 (hTROP-2) [3] = molecular target: T29, human TROP-2 (hTROP-2); assay: FACS on BxPC-3 cells

Chain of Table 9 peptide No. 26 (human) (peptide, as listed by the source): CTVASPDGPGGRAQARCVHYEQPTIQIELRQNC
Chain of Table 9 peptide No. 29 (human) (peptide, as listed by the source): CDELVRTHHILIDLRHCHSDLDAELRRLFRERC

Kd [1]: 26.9 pM
binding of K5-116-2-1 (Table 9 peptide No. 7): 1720
binding of K5-116-2-1 (Table 9 peptide No. 5): 2420
binding of K5-116-2-1 (Table 9 peptide No. 27): 1220
binding of K5-116-2-1 (Table 9 peptide No. 3): 2480
binding of K5-116-2-1 (Table 9 peptide No. 22): 1320
binding of K5-116-2-1 (Table 9 peptide No. 13): 1460
binding of K5-116-2-1 (Table 9 peptide No. 15): 1430
binding of K5-116-2-1 (Table 9 peptide No. 11): 1480
binding of K5-116-2-1 (Table 9 peptide No. 29): 1200
binding of K5-116-2-1 (Table 9 peptide No. 16): 1420
binding of K5-116-2-1 (Table 9 peptide No. 1): 2670
binding of K5-116-2-1 (Table 9 peptide No. 14): 1440
binding of K5-116-2-1 (Table 9 peptide No. 2): 2610
binding of K5-116-2-1 (Table 9 peptide No. 17): 1390
binding of K5-116-2-1 (Table 9 peptide No. 4): 2440
binding of K5-116-2-1 (Table 9 peptide No. 24): 1230
binding of K5-116-2-1 (Table 9 peptide No. 12): 1470
binding of K5-116-2-1 (Table 9 peptide No. 25): 1230
binding of K5-116-2-1 (Table 9 peptide No. 19): 1370
binding of K5-116-2-1 (Table 9 peptide No. 6): 2140
binding of K5-116-2-1 (Table 9 peptide No. 26): 1220
binding of K5-116-2-1 (Table 9 peptide No. 18): 1380
binding of K5-116-2-1 (Table 9 peptide No. 21): 1330
binding of K5-116-2-1 (Table 9 peptide No. 28): 1220
binding of K5-116-2-1 (Table 9 peptide No. 8): 1640
binding of K5-116-2-1 (Table 9 peptide No. 20): 1340
binding of K5-116-2-1 (Table 9 peptide No. 10): 1500
binding of K5-116-2-1 (Table 9 peptide No. 23): 1270
binding of K5-116-2-1 (Table 9 peptide No. 9): 1590
mean fluorescence intensity, times that with PE-labeled anti-mouse IgG only (human TROP-2 (hTROP-2) [2]): 122 times
mean fluorescence intensity, times that with PE-labeled anti-mouse IgG only (human TROP-2 (hTROP-2) [3]): 121 times
B1: anti-hTROP-2 monoclonal antibody K5-116-2-1 (antibody, V domains shown)
VH: QVQLQQPGAELVRPGASVKLSCKASGYTFTSYWITWVKQRPGQGLEWIGNIYPSDSYTNYNQKFRDKATLTVDKSSSTAYMQLSSPTSEDSAVYYCSALFDYWGQGTTLTVSS
VL: DILLTQSPAILSVSPGERVSFSCRASQSIGTSIHWYQQRTNGSPRLLIKYASESISGIPSRFSGSGSGTDFILSINSVESEDIADYYCQQSNSWPFTFGSGTKLEIK

Source: patent US9062100B2, “Anti-human TROP-2 antibody having anti-tumor activity in vivo” (LIVTECH, INC., dated 2015)
